# Data from PMC4470385.
# Molecular target: Von Willebrand factor (VWF) (UniProt P04275)
# Experiment: ELISA
row,Substance,Kd
1,FVIII 336(P4-P3')562 variant (B-domainless) (natural protein),0.82 nM
2,FVIII 336(P4-P3')562/Ala108Ile variant (B-domainless) (natural protein),0.91 nM
3,FVIII 336(P4-P3')562/Ala108Ile/Asp519Val/Glu665Val variant (B-domainless) (natural protein),1 nM
4,FVIII 336(P4-P3')562/Asp519Val/Glu665Val variant (B-domainless) (natural protein),0.87 nM
5,FVIII Ala108Ile variant (B-domainless) (natural protein),0.97 nM
6,FVIII Asp519Val/Glu665Val variant (B-domainless) (natural protein),0.9 nM
7,"WT FVIII (B-domainless factor VIII, lacking residues Gln744-Ser1637) (natural protein)",0.95 nM
